From publication PMC4228979, “Conserved cis-regulatory modules in promoters of genes encoding wheat high-molecular-weight glutenin subunits”

T1: His-SPA (Storage Protein Activator, bZIP) (UniProt A0A9R1IS55 1-409)
T1 sequence: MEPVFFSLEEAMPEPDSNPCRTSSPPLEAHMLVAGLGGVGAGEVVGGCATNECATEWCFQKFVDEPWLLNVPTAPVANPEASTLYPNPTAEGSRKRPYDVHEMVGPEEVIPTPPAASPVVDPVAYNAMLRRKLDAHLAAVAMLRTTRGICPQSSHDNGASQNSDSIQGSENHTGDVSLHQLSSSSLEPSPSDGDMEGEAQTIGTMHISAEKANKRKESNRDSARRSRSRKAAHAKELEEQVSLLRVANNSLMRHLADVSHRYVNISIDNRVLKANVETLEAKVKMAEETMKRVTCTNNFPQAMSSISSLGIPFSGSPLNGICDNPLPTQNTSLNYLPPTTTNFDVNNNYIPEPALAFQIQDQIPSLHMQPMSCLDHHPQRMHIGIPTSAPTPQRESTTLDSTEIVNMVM

B1: GLM2 (-626) (dsDNA)
DNA 1: ATAGATATTGTGAGTCAGCATGGAT
DNA 2: ATCCATGCTGACTCACAATATCTAT
B2: glm1 (dsDNA)
DNA 1: ATAGATGTTTTTATTAATTGGATAG
DNA 2: CTATCCAATTAATAAAAACATCTAT
B3: mutated G-box (dsDNA)
DNA 1: GCCCATTCTCTGGCTTTAGCAGACC
DNA 2: GGTCTGCTAAAGCCAGAGAATGGGC

target: T1, His-SPA (Storage Protein Activator, …); assay: EMSA; 10 mM Tris pH 7.5, 100 mM KCl, 2 mM DTT, 2 mM EDTA, 10% glycerol, 0.05% nonyl phenoxypolyethoxylethanol, 0.5 mM PMSF, 100 ng/uL poly(dI.dC), 250 ng/uL fish sperm DNA; 20 fmol probe, 560 ng-4 ug protein in 20 uL; 30 min, room temperature; gel at 4 C; conditions: protein: recombinant; tags: His tag (pDEST17); chain copies: 2; label: 3' biotin on each strand; blunt

| Binder | binding result |
| --- | --- |
| B1 | binds |
| B2 | no binding |
| B3 | no binding |
